{"source": "patent KR20240094169A", "about": "(dated 2024)", "binders": {"B1": {"name": "항-BCMA sdAb No.19 (VHH)", "VHH": "KLEESGGGSVQTGGSLRLTCAASGIIFSDDAIGWFRQAPGKERELVSLIDSKSSTYYADSVKGRFTISRDNAKNTVDLQMNSLKPEDTAIYYCNDHKRRQAMEYWGQGTQVTVSS", "notes": "Camel-derived single-domain antibody from a phage library; also called anti-BCMA sdAb No.19; 항-BCMA No.19"}, "B2": {"name": "항-BCMA sdAb No.11 (VHH)", "VHH": "KLEESGGGSVQTGGSLRLTCAASGSISRLDNMGWFRQAPGKERELVAAINSKSNKTNYADSVKGRFTISRDNAKNTVDLQMNSLKPEDTAIYYCANWSFDKHRAYWGQGTQVTVSS", "notes": "Camel-derived single-domain antibody from a phage library; also called anti-BCMA sdAb No.11; 항-BCMA No.11"}, "B3": {"name": "항-BCMA sdAb No.7 (VHH)", "VHH": "KLEESGGGSVQTGGSLRLTCAASGSIFSSGFMAWFRQAPGKEREFVSGISWRGDSTGYADSVKGRFTISRDNAKNTVDLQMNSLKPEDTAIYYCAARGTDTAYWGQGTQVTVSS", "notes": "Camel-derived single-domain antibody from a phage library; also called anti-BCMA sdAb No.7; 항-BCMA No.7"}}, "target": "T1, BCMA (B-cell maturation antigen) expressed on multiple myeloma H929 cells (UniProt Q02223 1-184, limits assumed)", "T1 construct": "whole, on cells; also called TNFRSF17; CD269", "T1 sequence (looked up)": "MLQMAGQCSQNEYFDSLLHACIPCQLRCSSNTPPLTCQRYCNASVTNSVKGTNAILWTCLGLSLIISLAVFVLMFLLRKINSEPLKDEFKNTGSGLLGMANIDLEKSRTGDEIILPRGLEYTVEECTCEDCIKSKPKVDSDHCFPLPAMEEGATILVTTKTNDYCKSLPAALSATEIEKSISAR", "assay": "flow cytometry on H929 cells, 1 ㎍ sdAb, PE-conjugated secondary antibody", "data": [{"binder": "B1", "values": [{"measurement": "binding result", "value": "binds"}]}, {"binder": "B2", "values": [{"measurement": "binding result", "value": "binds"}]}, {"binder": "B3", "values": [{"measurement": "binding result", "value": "binds"}]}]}
